B1: plasminogen (protein)
chain: EPLDDYVNTQGASLFSVTKKQLGAGSIEECAAKCEEDEEFTCRAFQYHSKEQQCVIMAENRKSSIIIRMRDVVLFEKKVYLSECKTGNGKNYRGTMSKTKNGITCQKWSSTSPHRPRFSPATHPSEGLEENYCRNPDNDPQGPWCYTTDPEKRYDYCDILECEEECMHCSGENYDGKISKTMSGLECQAWDSQSPHAHGYIPSKFPNKNLKKNYCRNPDRELRPWCFTTDPNKRWELCDIPRCTTPPPSSGPTYQCLKGTGENYRGNVAVTVSGHTCQHWSAQTPHTHNRTPENFPCKNLDENYCRNPDGKRAPWCHTTNSQVRWEYCKIPSCDSSPVSTEQLAPTAPPELTPVVQDCYHGDGQSYRGTSSTTTTGKKCQSWSSMTPHRHQKTPENYPNAGLTMNYCRNPDADKGPWCFTTDPSVRWEYCNLKKCSGTEASVVAPPPVVLLPDVETPSEEDCMFGNGKGYRGKRATTVTGTPCQDWAAQEPHRHSIFTPETNPRAGLEKNYCRNPDGDVGGPWCYTTNPRKLYDYCDVPQCAAPSFDCGKPQVEPKKCPGRVVGGCVAHPHSWPWQVSLRTRFGMHFCGGTLISPEWVLTAAHCLEKSPRPSSYKVILGAHQEVNLEPHVQEIEVSRLFLEPTRKDIALLKLSSPAVITDKVIPACLPSPNYVVADRTECFITGWGETQGTFGAGLLKEAQLPVIENKVCNRYEFLNGRVQSTELCAGHLAGGTDSCQGDSGGPLVCFEKDKYILQGVTSWGLGCARPNKPGVYVRVSRFVTWIEGVMRNN

What was measured:
[1] = molecular target: VEGF receptors on bovine aortic endothelial cells; assay: cell-based or functional assay
[2] = molecular target: rPAI-1Δ23, P79335
[3] = molecular target: rPAI-123, P79335
Chain of rPAI-123, P79335 (P79335 whole entry, looked up): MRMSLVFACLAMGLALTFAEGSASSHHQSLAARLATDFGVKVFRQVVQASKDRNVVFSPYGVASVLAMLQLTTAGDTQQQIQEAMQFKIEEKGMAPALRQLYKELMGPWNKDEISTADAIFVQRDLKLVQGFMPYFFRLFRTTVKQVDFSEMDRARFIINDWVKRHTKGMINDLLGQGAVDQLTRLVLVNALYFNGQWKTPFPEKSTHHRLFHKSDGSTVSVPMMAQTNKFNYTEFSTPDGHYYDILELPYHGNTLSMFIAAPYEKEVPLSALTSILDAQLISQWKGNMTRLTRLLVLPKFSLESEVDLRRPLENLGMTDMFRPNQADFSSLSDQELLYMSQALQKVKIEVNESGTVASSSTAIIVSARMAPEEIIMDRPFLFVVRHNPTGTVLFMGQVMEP

Chain of rPAI-1Δ23, P79335 (P79335 whole entry, looked up, stated change not applied): as the sequence (P79335 whole entry, looked up) above

Molecule | apoptosis (Annexin V) in rPAI-123-treated BAEC versus PAEC [1] | plasminogen cleavage (immunoblot probed for mini-plasminogen) [2] | plasminogen cleavage (immunoblot probed for mini-plasminogen) [3]
125I-VEGF (ligand) | 60% |  | 
B1 |  | the rPAI-1?23 protein did not cleave plasminogen, even when increasing concentrations of the recombinant protein were added | a distinct plasminogen cleavage product near 50 kDa in all reactions containing the rPAI-123 protein (3, 15 and 30 nM)
